Where no end group is shown, it is not given here.
Target: β-subunit of nerve growth factor (UniProt P01138 122-241)
Assay: ELISA

Chain of β-subunit of nerve growth factor (P01138 122-241): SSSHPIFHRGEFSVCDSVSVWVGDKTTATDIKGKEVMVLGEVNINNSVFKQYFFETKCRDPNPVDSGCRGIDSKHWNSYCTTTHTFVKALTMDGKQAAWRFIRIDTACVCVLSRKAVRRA

B1: NK-displaying M13 phage (β-NGF-binding peptide NK displayed on M13 phage) (peptide)
peptide: NERALTLGEEGAVVK
modifications: also: displayed on M13 phage
Question: For B1, which “fold increase in ELISA absorbance” value is on record?
Answer: 4 fold

— PMC11927663 (Science Advances, 2025)
